# From paper PMC6160459 (Scientific Reports, 2018)
# B1: Natalizumab (antibody, V domains shown)
# VH: QVQLVQSGAEVKKPGASVKVSCKASGFNIKDTYIHWVRQAPGQRLEWMGRIDPANGYTKYDPKFQGRVTITADTSASTAYMELSSLRSEDTAVYYCAREGYYGNYGVYAMDYWGQGTLVTVSS
# VL: DIQMTQSPSSLSASVGDRVTITCKTSQDINKYMAWYQQTPGKAPRLLIHYTSALQPGIPSRFSGSGSGRDYTFTISSLQPEDIATYYCLQYDNLWTFGQGTKVEIK
# notes: humanized heavy-chain variable region; light chain; IgG4; also called Tysabri; source: obtained from the UCSD Moores Cancer Center Pharmacy
# Target: T1, α4 integrin (CD49d) on JeKo-1 cells (Homo sapiens, endogenous on JeKo-1 cells, UniProt P13612)
# T1 construct: integrin alpha-4 (CD49d); also called α4 chain of α4β1 integrin (VLA-4) and α4β7 integrin (LPAM-1); source: endogenous, on JeKo-1 cells
# Assay: flow cytometry on cells; Ntz-01 premixed with natalizumab 1 h on ice in 5% FBS/DPBS/0.05% NaN3, then CD49d+ JeKo-1 cells 20 m on ice; cell-bound natalizumab detected with anti-human IgG4 Fc Alexa Fluor 647
# Conditions: one partner purified
binder,measurement,value
B1,binding result,binds
